From publication PMC7955051 come the findings set out here.

The target of assay [1] is RSV IN 1–278 (Rous sarcoma virus integrase, C-terminal truncation of 8 amino acids) (Rous sarcoma virus (Prague A)). In words: SEC.
For assay [2] the target is unchanged. In words: cryo-EM structure.
The target in assay [3] is RSV IN S262R (recombinant) (Rous sarcoma virus (Prague A)). In words: not stated; CSC assembly with recombinant IN mutants (Supplementary Fig. 11).

For orientation: stoichiometry N means a count of units in the complex or per binding partner. For “RSV IN 1–278 (Rous sarcoma virus integrase, C-terminal truncation of 8 amino acids) (domain or fragment)”, the stoichiometry N in assay [1] and in assay [2] was 8 each time.

For the substance RSV IN S262R (recombinant) (enzyme), the stoichiometry N in assay [3] was determined as 8.
